Measured values from patent US20260132208A1 (DOMAIN THERAPEUTICS, published 2026).
Several values for one entry are separate records, joined by “and”; a condition that tells them apart may be missing. Identical values can stand only once.

B1: anti-CCR8 mAb 1-2 (antibody, V domains shown)
VH: EVQLVESGGGLVQPKGSLKLSCAASGFTFNTYAMNWVRQAPGKGLEWVARIRSKSNNYATYYADSVKDRFTISRDDSQSMLYLQMNNLKTEDTAMYYCVRGREAYYRYDGGYYAMDYWGQGTSVTVSS
VL: DIVMTQAAPSVPVTPGESVSISCRSSKSLLHSNGNTYLYWFLQRPGQSPQLLIYRMSNLASGVPDRFSGSGSGTAFTLRISRVEAEDVGVYYCMQHLEYPFTFGSGTKLEIK
notes: Murine hybridoma mAb
B2: anti-CCR8 mAb 1-8 (antibody, V domains shown)
VH: EVQLVESGGGLVQPKGSLRLSCAASGFTFNAYAMNWVRQAPGKGLEWVARIRSKSNNYATYYGDSVKDRFTISRDDSQTMLYLQMNNLKTEDTAMYYCVRGREAYYRYDGDYYAMDYWGQGTSVTVSS
VL: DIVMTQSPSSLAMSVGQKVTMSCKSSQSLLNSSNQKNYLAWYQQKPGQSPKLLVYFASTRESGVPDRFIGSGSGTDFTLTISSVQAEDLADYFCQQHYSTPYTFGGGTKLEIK
notes: Murine hybridoma mAb
B3: anti-CCR8 mAb 1-4 (antibody, V domains shown)
VH: EVQLVESGGGLVQPTGSLRLSCAASGFTFNAYAMNWVRQAPGKGLEWVARIRSKSNDYATYYGDSVKDRFTISRDDSQSMLYLQMNNLKTEDTAMYYCVRGREAYYRYDGGYYAMDYWGQGTSVTVSS
VL: DIVMTQAAPSVSVTPGESVSISCTSSKSLLHSNGNTYLYWFLQRPGQSPQLLIYRMSNLASGVPDRFSGSGSGTAFTLRISRVEAEDVGVYYCMQHREYPFTFGSGTKLEIK
notes: Murine hybridoma mAb
B4: anti-CCR8 mAb 1-1 (antibody, V domains shown)
VH: EVQLLESGGGLVQPKGSLKLSCAASGFTFNPYAMNWVRQAPGRGLEWVARIRSKSNNYATYYADSVKDRFTISRDDSQDMLYLQMNNLKTEDTAMYYCVRGREAYYRYDGDYYAMDYWGQGTSVTVSS
VL: DIVMTQAAPSVPVTPGESVSISCRSSKSLLHSNGNTYLYWFLQRPGQSPQLLIYRMSNLASGVPDRFSGSGSGTAFTLRISRVEAEDVGVYYCMQHLEYPFTFGSGTKLEIK
notes: Murine hybridoma mAb

Tests used:
human CCR8 [1] = target: T1, human CCR8 (human, UniProt P51685 1-355); experiment: flow cytometry, hCCR8-transfected CHO-K1 cells
T1 construct: also called hCCR8; CC chemokine receptor 8
Method: Briefly, 1.10⁵ cells per well in a 96 well plate were incubated with a dilution of unconjugated anti-CCR8 mAb at 10 μg/mL then diluted at 1/3.33, 4 dilution points (during 30 min at 4° C.). In human activated T cells model, prior to mAb incubation, cells were first incubated with 200 nM of hCCL1 (R&D Systems, Minneapolis, MN, USA) or buffer PBS (Invitrogen by Thermofisher Scientific, Illkirch-Graffenstaden, France) supplemented by 2% Fetal Bovine Serum (Invitrogen by Thermofisher Scientific, Illkirch-Graffenstaden, France) and 2 mM EDTA (Invitrogen by Thermofisher Scientific, Illkirch-Graffenstaden, France) during 1 hour at 4° C. To determine EC50 value, 8 concentrations of anti-CCR8 mAb were tested. Unbound antibodies were washed away with PBS (Invitrogen by Thermofisher Scientific, Illkirch-Graffenstaden, France) supplemented by 2% Fetal Bovine Serum (Invitrogen by Thermofisher Scientific, Illkirch-Graffenstaden, France) and 2 mM EDTA (Invitrogen by Thermofisher Scientific, Illkirch-Graffenstaden, France). Subsequently, cells are centrifuged (5 min at 400 g) and bound antibody is detected with F(ab′)2-Goat anti-Mouse IgG (H+L) Cross-Adsorbed Secondary Antibody, Alexa Fluor 488 (dilution 1/500) (Invitrogen by Thermofisher Scientific, Illkirch-Graffenstaden, France) or with F(ab′)₂-Goat anti-Human IgG Fc Secondary Antibody, PE (Invitrogen by Thermofisher Scientific, Illkirch-Graffenstaden, France) (dilution 1/1000) at 4° C. for 30 min. Detection reagent is washed away and cells are centrifuged (5 min at 400 g) and resuspended in 30 μL PBS. Bound detection antibody is quantified on a MacsQuant16 (Miltenyi, Gladbach, Germany) (B1 or B2 channel, 5000 events per acquisition). During the experiment, the respective isotype mAb controls (mouse IgG1, mouse IgG2a, mouse IgG2b, mouse IgG3 or human IgG1) (Biolegend, Amsterdam, The Netherlands) are included to exclude any unspecific binding events. EC50 values were determined via nonlinear fit “log (agonist) vs.response—Variable slope (four parameters)” function of Graphpad prism. EC50 values were not constantly determined in the same experiments.

human CCR8 [2] = target: T1, human CCR8; experiment: cell-based or functional assay
human CCR8 [3] = target: T1, human CCR8; experiment: cell-based or functional assay; remark: listed apart in the source
pm5 = target: T2, pm5 (Y15 and Y17 sulfated; Y16 not sulfated); experiment: ELISA on coated peptide [cont.]
T2 construct: also called sulfated CCR8 N-terminal peptide pm5
Method: (§1) The specific binding properties of antibodies were evaluated by ELISA with coated CCR8 related peptides (500 ng/ml) in carbonate/bicarbonate buffer. Different peptides were used as described in Table 1 (see Example 1). Each anti-CCR8 mAb was tested at 1 μg/mL then diluted at 1/10. After an incubation at room temperature during 90 min, unbound mAbs were removed by washings. […] After washings, 3,3′,5,5′-tetramethylbenzidine (TMB) (Interchim, Montluçon, France) was added for 15 min. Then the optical density (OD) was determined by using a multiplate reader (Tecan, Lyon, France) and correlated with mAb reactivity on the panel of coated peptides.

pm3 = target: T3, pm3 (Y17 sulfated; Y15 and Y16 not sulfated); experiment: ELISA on coated peptide [cont.]
T3 construct: also called sulfated CCR8 N-terminal peptide pm3
Method: as §1

pm6 = target: T4, pm6 (Y16 and Y17 sulfated; Y15 not sulfated); experiment: ELISA on coated peptide [cont.]
T4 construct: also called sulfated CCR8 N-terminal peptide pm6
Method: as §1

pm8 = target: T5, pm8 (Y15, Y16 and Y17 sulfated); experiment: ELISA on coated peptide [cont.]
T5 construct: also called sulfated CCR8 N-terminal peptide pm8
Method: as §1

human CCR8 [4] = target: T1, human CCR8; experiment: cell-based or functional assay; remark: listed apart in the source
human CCR8 [5] = target: T1, human CCR8; experiment: cell-based or functional assay; remark: listed apart in the source
human CCR8 [6] = target: T1, human CCR8; experiment: flow cytometry, inhibition of hCCL1-AF647 (10 nM) binding to hCCR8-CHO cells
Method: The hCCR8 transfected CHO cell line was dispatched at a density of 1.105 per well in a 96-well plate. Cells were incubated for 30 min at 4° C. with or without anti-CCR8 mAb tested at 10 μg/mL then diluted at 1/3. Unbound antibodies were washed away with PBS (Gibco, Villebon-sur-yvette, France) supplemented by 2% Fetal Bovine Serum (Invitrogen by Thermofisher Scientific, Illkirch-Graffenstaden, France) and 2 mM EDTA. […] After washing unbound ligands, CCL1 bound detection is quantified on a MacsQuant16 (Miltenyi, Gladbach, Germany) (R1 channel, 5 000 events per acquisition).
For IC₅₀ determination, a concentration response curve is performed using 8 concentrations of mAb. Curves are fitted and IC₅₀ of CCL1 binding blocking activity is calculated using the sigmoidal dose-response (variable slope) model on GraphPad Prism 9 (GraphPad Software, San Diego, CA, USA).

T2 sequence (peptide, as listed by the source): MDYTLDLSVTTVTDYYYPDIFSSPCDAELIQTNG
T3 sequence (peptide, as listed by the source): as above
T5 sequence (peptide, as listed by the source): as above
T4 sequence (peptide, as listed by the source): as above

| Binder | % positive cells (human CCR8 [1]) [%] | MFI fold change to isotype ctrl (human CCR8 [1]) [fold] | IC50 of CCL1-induced hCCR8 Gi2 signaling (BRET, HEK-293) (human CCR8 [2]) | extrapolated top plateau of hCCL1 curve with 5 µg/mL mAb, protocol #3 (human CCR8 [3]) | binding result (pm5) | binding result (pm3) | binding result (pm6) | binding result (pm8) | residual hCCL1 (100 nM) Gi2 response, protocol #2, mAb 0.08 µg/mL (human CCR8 [4]) [%] | residual hCCL1 (100 nM) Gi2 response, protocol #2, mAb 0.4 µg/mL (human CCR8 [4]) [%] | residual hCCL1 (100 nM) Gi2 response, protocol #2, mAb 10 µg/mL (human CCR8 [4]) [%] | residual hCCL1 (100 nM) Gi2 response, protocol #3, mAb 0.05 µg/mL (human CCR8 [4]) [%] | residual hCCL1 (100 nM) Gi2 response, protocol #3, mAb 0.5 µg/mL (human CCR8 [4]) [%] | residual hCCL1 (100 nM) Gi2 response, protocol #3, mAb 5 µg/mL (human CCR8 [4]) [%] | IC50 of CCL1-induced hCCR8 Gi2 signaling (BRET), pH 6.5 (human CCR8 [5]) | IC50 of CCL1-induced hCCR8 Gi2 signaling (BRET), pH 7.4 (human CCR8 [5]) | IC50 (human CCR8 [6]) |
| --- | --- | --- | --- | --- | --- | --- | --- | --- | --- | --- | --- | --- | --- | --- | --- | --- | --- |
| B1 | 90.6 | 22.7 | 0.191 nM and 0.029 µg/mL | 640000 % of hCCL1 (100 nM) | binds | binds | binds | binds | 60 | 36 | 19 | 74 | 68 | 48 | 0.03 µg/ml and 0.198 nM | 0.031 µg/ml and 0.21 nM | 0.83 µg/mL and 5.55 nM |
| B2 | 68.5 | 5.12 | 0.031 µg/mL and 0.209 nM | 511000 % of hCCL1 (100 nM) | binds | binds | binds | binds | 70 | 44 | 51 | 78 | 55 | 43 | 0.053 µg/ml and 0.355 nM | 0.063 µg/ml and 0.421 nM | 2.55 µg/mL and 17.1 nM |
| B3 | 66.8 | 5.06 | 0.034 µg/mL and 0.227 nM | 313000 % of hCCL1 (100 nM) | binds | binds | binds | binds | 72 | 49 | 28 | 75 | 36 | 22 | 0.034 µg/ml and 0.225 nM | 0.065 µg/ml and 0.434 nM | 1.93 µg/mL and 12.9 nM |
| B4 | 72.8 | 6.32 | 0.023 µg/mL and 0.153 nM | 760000 % of hCCL1 (100 nM) | binds | binds | binds | binds | 81 | 69 | 44 | 77 | 57 | 49 | 0.021 µg/ml and 0.143 nM | 0.024 µg/ml and 0.163 nM | 1.02 µg/mL and 6.83 nM |
